Results from PMC8561734, “Structural basis for SdgB- and SdgA-mediated glycosylation of staphylococcal adhesive proteins” (Acta Crystallographica. Section D, Structural Biology, 2021).
Where no end group is shown, it is not given here. The star is where a group is joined. βGlcNAc = CC(=O)N[C@@H]1[C@@H](O)[C@H](O)[C@@H](CO)O[C@H]1*

T1: SdgB (glycosyltransferase, Staphylococcus aureus USA300) (Staphylococcus aureus (strain USA300), UniProt A0A0H2XGN0 1-496)
T1 chain: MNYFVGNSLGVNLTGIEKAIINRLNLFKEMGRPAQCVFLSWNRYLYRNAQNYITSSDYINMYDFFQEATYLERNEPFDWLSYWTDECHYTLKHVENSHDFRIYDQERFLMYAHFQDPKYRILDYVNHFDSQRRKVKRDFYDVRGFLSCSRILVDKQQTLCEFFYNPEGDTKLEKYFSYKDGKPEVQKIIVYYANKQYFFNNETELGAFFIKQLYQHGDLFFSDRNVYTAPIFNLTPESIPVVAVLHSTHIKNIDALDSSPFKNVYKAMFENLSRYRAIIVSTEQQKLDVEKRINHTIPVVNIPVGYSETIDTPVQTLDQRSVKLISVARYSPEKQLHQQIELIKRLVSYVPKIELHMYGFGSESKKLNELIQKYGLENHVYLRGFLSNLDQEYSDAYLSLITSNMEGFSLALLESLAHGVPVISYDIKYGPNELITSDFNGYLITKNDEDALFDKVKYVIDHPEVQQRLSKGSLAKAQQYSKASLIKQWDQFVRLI

B1: diGlcNAcylated 9-mer SD-repeat peptide (DSDSDSDSD) (peptide)
peptide: DSDS(βGlcNAc)DSDS(βGlcNAc)D
notes: serine–aspartate repeat as in the SDR domains of staphylococcal SDR proteins (ClfA and others); no one parent protein is named; Asp1 not modelled in the structure; The peptide was added unmodified; also called GlcNAcylated SD-repeat peptide (9-mer); O-GlcNAcylated SDR peptide (9-mer); source: 9-mer peptide soaked into the SdgB crystal with UDP-GlcNAc and glycosylated in the crystal
B2: SdgB (glycosyltransferase, Staphylococcus aureus USA300) (enzyme)
chain: T1 chain
notes: SdgB, O-GlcNAc glycosyltransferase of S. aureus strain USA300, gene SAUSA300_0550, cloned into pET-21a(+); theoretical monomer mass 59.5 kDa; A selenomethionine-substituted form was used only for phasing; also called SdgB_(quaternary); source: E. coli Rosetta 2(DE3)pLysS, purified (HiTrap Chelating, HiTrap Q, Superdex 200)
B3: 5-mer SD-repeat peptide Asp-Ser-Asp-Ser-Asp (DSDSD) (peptide)
peptide: DSDSD
notes: serine–aspartate repeat as in the SDR domains of staphylococcal SDR proteins (ClfA and others); no one parent protein is named; only SDSD was modelled in the structure; also called 5-mer SDR peptide; source: synthetic peptide
B4: SdgA (glycosyltransferase, Staphylococcus aureus USA300) (enzyme)
chain: MNYILGTILESKITGVEKAQINRLKLFKQHGISSKCVYVKWNPYSYTYAKQHQIENDVFTMYDYFQKAINYKKTKQVNWIQYWEKSCRYTLKFVENSNDVRIYDEEQFVMYAHFLDKQYHQLNYVNYFDHKRRKVKRELYDGRGFLSCSRILGEGQRIVLENYYTPNGEIVIQKYFDDIKGKNTLTKVILNEDQHQQFFDTEDELVQYFLHQLCKNNDQIILDRPHELGNVIAGLNQSIPVIVVLHSTHLSGAGNGIKSFYKTVFNNLTRYKAIVVSTEKQCQDISQYIENKIPVINIPVGYVANLKYQFDINQKEKNHIISIARLVENKQIKHQIEVIKQLVTKHPNIQLNIYGHGNGLSEYRQLVEDYHLSEHVKFHGFKTHINEEIAKAELMLSTSKMEGFGLAILESLSVGTPVISYDVDYGPSELIQDGFNGYLVPQGDINQMVEKVDQLLNNTQKLQQFSINSIESAQQYNATTISTKWQNILN
notes: SdgA, glycosyltransferase of S. aureus strain USA300, gene SAUSA300_0549, cloned into pET-21a(+); theoretical monomer mass 60.4 kDa; source: E. coli Rosetta 2(DE3)pLysS, purified (HiTrap Chelating, HiTrap Q, Superdex 200)

Assays:
SdgB [1] = target: T2, SdgB (Staphylococcus aureus, UniProt A0A0H2XGN0); assay: MALDI-MS O-GlcNAcyltransferase assay; type: biochemical; conditions: 10 mM donor; acceptor DSD or DSDSD 3 mM, 5 uM enzyme, 20 mM HEPES pH 7.5, 150 mM NaCl, 1 mM MgCl2, 37 C, 2 h
T2 construct: gene SAUSA300_0550; full-length, C-terminal His6 tag (pET-21a), E. coli Rosetta 2(DE3)pLysS; residues 1-496 compared

SdgB [2] = target: T2, SdgB; assay: X-ray crystallography; conditions: donor-binding site, closed form
[3] = target: SdgA (glycosyltransferase, Staphylococcus aureus USA300) (Staphylococcus aureus (strain USA300)); assay: AUC; sedimentation equilibrium; SdgB 1 µM, SdgA 4.5 µM; 20 mM HEPES pH 7.5, 150 mM NaCl, 1 mM MgCl2; 9000 and 15 000 rev/min; global fit to a monomer–dimer self-association model (dimer to monomers)
[4] = target: SdgA (glycosyltransferase, Staphylococcus aureus USA300) (Staphylococcus aureus (strain USA300)); assay: AUC; sedimentation velocity; SdgA at 4.5 µM; 30 000 rev/min
[5] = target: B2; assay: crystal structure; SdgB crystal (20 mM CaCl2, 85 mM trisodium citrate pH 5.6, 25.5% PEG 4000, 15% glycerol) soaked with 2.66 mM 9-mer SD-repeat peptide and 9.60 mM UDP-GlcNAc for 7.5 h; conditions: both partners purified
[6] = target: the molecule itself; assay: AUC; sedimentation equilibrium; SdgB 1 µM, SdgA 4.5 µM; 20 mM HEPES pH 7.5, 150 mM NaCl, 1 mM MgCl2; 9000 and 15 000 rev/min; global fit to a monomer–dimer self-association model (dimer to monomers)
[7] = target: the molecule itself; assay: SEC-MALS; SdgB 0.22 mg injected; Superdex 200 Increase 10/300 GL; 20 mM Tris–HCl pH 7.5, 200 mM NaCl; 0.5 ml/min
[8] = target: B2; assay: crystal structure; SdgB crystal (0.2 M MgCl2, 0.1 M Tris–HCl pH 8.5, 25% PEG 3350) quick-soaked with 6.14 mM UDP and 2.45 mM 5-mer peptide DSDSD for 30 min; conditions: both partners purified
[9] = target: B2; assay: SPR; SdgB immobilised on a PEG-based sensor chip (1062 RU); SdgA 0.39–25.0 µM as analyte; HBS-EP (10 mM HEPES pH 7.4, 150 mM NaCl, 0.03 mM EDTA, 0.005% Tween 20); 20°C; kinetic fit with Scrubber2; conditions: both partners purified
[10] = target: T1, SdgB (glycosyltransferase, …); assay: SPR

With `CC(=O)N[C@H]1[C@@H](OP(=O)(O)OP(=O)(O)OC[C@H]2O[C@@H](n3ccc(=O)[nH]c3=O)[C@H](O)[C@@H]2O)O[C@H](CO)[C@@H](O)[C@@H]1O` [UDP-GlcNAc] the “MALDI-MS O-GlcNAcyltransferase assay” value (SdgB [1]) was “converted into mono-GlcNAcylated forms by SdgB but not by SdgA”.

For `O=c1ccn([C@@H]2O[C@H](COP(=O)(O)OP(=O)(O)O)[C@@H](O)[C@H]2O)c(=O)[nH]1` [UDP], the X-ray crystallography (SdgB [2]; complex with cleaved GlcNAc and diGlcNAcylated 9-mer, 2.5 A, also seen with DSDSD in a second structure (7VFM)) was “distinct electron density for UDP and GlcNAc was observed in the cleft”.

In the case of `CC(=O)N[C@H]1C(O)O[C@H](CO)[C@@H](O)[C@@H]1O` (some centres unmarked) [GlcNAc], the X-ray crystallography (SdgB [2]; cleaved from soaked UDP-GlcNAc, with UDP and diGlcNAcylated 9-mer) is reported as “distinct electron density for UDP and GlcNAc was observed in the cleft”.

For “SdgA (glycosyltransferase, Staphylococcus aureus USA300) (from UniProt A0A0H2XI10 1-490) (enzyme)”, the Kd [3] was 14100 nM and the stoichiometry N [4] was 2.

B1: binds [5].

With B2 the Kd [6] was 926 nM and the “stoichiometry N” value [7] was 2.

B3: binds [8].

B4 was tested, and the Kd [9] was 393 nM and the koff [10] was 0.000496 s⁻¹.
